In paper PMC4505066 (2015):

B1: wild type GSI motif peptide (CPRPLKEGSITQGTPLKYDTG), SMRT amino acids 1450-1469 with an amino-terminal cysteine [modified: BODIPY-TMR coupled to the N-terminal cysteine; BODIPY-TMR coupled to the N-terminal cysteine] [not stated] / HDAC4 … (parent complex)
chain 1: CPRPLKEGSITQGTPLKYDTG
chain 2: TKPRFTTGLVYDTLMLKHQCTCGSSSSHPEHAGRIQSIWSRLQETGLRGKCECIRGRKATLEELQTVHSEAHTLLYGTNPLNRQKLDSKKLLGSLASVFVRLPCGGVGVDSDTIWNEVHSAGAARLAVGCVVELVFKVATGELKNGFAVVRPPGHHAEESTPMGFCYFNSVAVAAKLLQQRLSVSKILIVDWDVHHGNGTQQAFYSDPSVLYMSLHRYDDGNFFPGSGAPDEVGTGPGVGFNVNMAFTGGLDPPMGDAEYLAAFRTVVMPIASEFAPDVVLVSSGFDAVEGHPTPLGGYNLSARCFGYLTKQLMGLAGGRIVLALEGGHDLTAICDASEACVSALLGNELDPLPEKVLQQRPNANAVRSMEKVMEIHSKYWRCLQRTTSTAGRSLIEAQTCENEEAETVT

Variants of: B1
Assay: fluorescence anisotropy

Variant	Kd
chain 1 CPRPLKEGSITAGTPLKYDTG [chain 1 Q12A]	5.47 µM
chain 1 CPRPLKEGSITEGTPLKYDTG [chain 1 Q12E]	17.7 µM
chain 1 CPRPLKEGSIAQGTPLKYDTG [chain 1 T11A]	14.4 µM

Further variants by falling Kd, results first:

Kd	Variant
47 µM	chain 1 CPRPLKEGSITQGTALKYDTG [chain 1 P15A]
16.9 µM	chain 1 CPRPLKEGSIVQGTPLKYDTG [chain 1 T11V]
